Sequences and labels used below:
B1: Lysozyme C, P61626 (parent)
chain: MKALIVLGLVLLSVTVQGKVFERCELARTLKRLGMDGYRGISLANWMCLAKWESGYNTRATNYNAGDRSTDYGIFQINSRYWCNDGKTPGAVNACHLSCSALLQDNIADAVACAKRVVRDPQGIRAWVAWRNRCQNRDVRQYVQGCGV

Variants of B1 are the subject of this data set. As to conditions: Homo sapiens, pH 2.7, Thermal, DSC, glycine 0.05 M, reversible: yes, structure 1LZ1, whole UniProt chain shown.

For I124V, the Tm is 62.7 °C; the “change of melting temperature, mutant - wild type (higher = more stable)” value (from here on “change of melting temperature, mutant”) is -2.2 °C; the “heat capacity change of unfolding” value was found to be 1.41 kcal/mol/K; the “unfolding enthalpy (calorimetric)” value was determined as 109 kcal/mol. In addition, the “unfolding enthalpy (van 't Hoff)” value worked out at 114 kcal/mol. In addition, for the setting “64.9 °C”, the “ddG of mutation (higher = less stable)” value is 0.72 kcal/mol and the “heat capacity change of unfolding” value was found to be 1.41 kcal/mol/K.

Consider I107V, for which the Tm turned out to be 63.5 °C; the “change of melting temperature, mutant” value is -1.4 °C; the “heat capacity change of unfolding” value worked out at 1.91 kcal/mol/K; the “unfolding enthalpy (calorimetric)” value worked out at 116 kcal/mol. Also, the “unfolding enthalpy (van 't Hoff)” value was determined as 122 kcal/mol. Moreover, for the setting “64.9 °C”, the “ddG of mutation (higher = less stable)” value was 0.48 kcal/mol and the “heat capacity change of unfolding” value was determined as 1.91 kcal/mol/K.

On to I41V, for which the Tm was found to be 63.8 °C; the “change of melting temperature, mutant” value is -1.1 °C; the “heat capacity change of unfolding” value turned out to be 1.39 kcal/mol/K; the “unfolding enthalpy (calorimetric)” value came to 112 kcal/mol. The “unfolding enthalpy (van 't Hoff)” value was found to be 120 kcal/mol. For the same variant, for the setting “64.9 °C”, the “ddG of mutation (higher = less stable)” value amounted to 0.36 kcal/mol and the “heat capacity change of unfolding” value worked out at 1.39 kcal/mol/K.

With I74V, the Tm turned out to be 61.3 °C; the “change of melting temperature, mutant” value was -3.6 °C; the “heat capacity change of unfolding” value is 1.34 kcal/mol/K; the “unfolding enthalpy (calorimetric)” value is 114 kcal/mol. In addition, the “unfolding enthalpy (van 't Hoff)” value worked out at 117 kcal/mol. Where the note is “64.9 °C”, the “ddG of mutation (higher = less stable)” value is 1.2 kcal/mol and the “heat capacity change of unfolding” value came to 1.34 kcal/mol/K.

In the case of I77V, the midpoint of thermal melting (Tm) turned out to be 61.5 °C; the “change of melting temperature, mutant” value was -3.4 °C; the “heat capacity change of unfolding” value stood at 1.2 kcal/mol/K; the “unfolding enthalpy (calorimetric)” value amounted to 110 kcal/mol. The “unfolding enthalpy (van 't Hoff)” value was determined as 117 kcal/mol.
